T1: p204 HINab (Mus musculus, UniProt P0DOV2 216-619)
T1 sequence: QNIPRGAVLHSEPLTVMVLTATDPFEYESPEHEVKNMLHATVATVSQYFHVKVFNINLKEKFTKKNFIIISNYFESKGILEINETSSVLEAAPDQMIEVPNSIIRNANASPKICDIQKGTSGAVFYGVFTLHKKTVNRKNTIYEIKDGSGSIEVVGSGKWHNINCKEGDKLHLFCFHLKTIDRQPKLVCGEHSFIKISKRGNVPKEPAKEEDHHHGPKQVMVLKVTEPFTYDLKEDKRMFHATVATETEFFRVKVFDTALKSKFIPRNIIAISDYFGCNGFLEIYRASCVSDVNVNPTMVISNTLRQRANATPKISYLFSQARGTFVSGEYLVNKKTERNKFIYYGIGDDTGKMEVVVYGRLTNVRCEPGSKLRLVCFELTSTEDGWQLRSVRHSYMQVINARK

T2: p204 HINb (Mus musculus, UniProt P0DOV2 427-619)
T2 sequence: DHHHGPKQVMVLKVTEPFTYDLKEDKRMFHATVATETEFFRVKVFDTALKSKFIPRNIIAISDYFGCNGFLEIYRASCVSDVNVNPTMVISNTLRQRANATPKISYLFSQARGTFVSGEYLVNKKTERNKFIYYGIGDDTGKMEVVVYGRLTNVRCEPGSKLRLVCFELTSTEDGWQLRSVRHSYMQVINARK

T3: p204 HINa (Mus musculus, UniProt P0DOV2 216-417)
T3 sequence: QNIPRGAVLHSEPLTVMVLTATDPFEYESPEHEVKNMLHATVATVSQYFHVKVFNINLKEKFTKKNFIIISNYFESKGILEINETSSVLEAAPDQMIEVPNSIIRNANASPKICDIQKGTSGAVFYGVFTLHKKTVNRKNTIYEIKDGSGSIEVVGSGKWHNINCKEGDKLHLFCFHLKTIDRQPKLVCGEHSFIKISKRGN

B1: 20 mer dsDNA (dsDNA)
DNA 1: TAAGACACGATGCGATAAAA
DNA 2: TTTTATCGCATCGTGTCTTA
B2: 16 mer dsDNA (crystal) (dsDNA)
DNA 1: CCATCAGAAAGAGAGC
DNA 2: GCTCTCTTTCTGATGG
B3: 30 mer dsDNA (dsDNA)
DNA 1: CCATCAGAAAGAGGTTTAATATTTTTGTGA
DNA 2: TCACAAAAATATTAAACCTCTTTCTGATGG

Tests used:
p204 HINab [1] = target: T1, p204 HINab; assay: fluorescence polarization
p204 HINab [2] = target: T1, p204 HINab; assay: X-ray crystallography
p204 HINb = target: T2, p204 HINb; assay: fluorescence polarization
p204 HINa = target: T3, p204 HINa; assay: fluorescence polarization

Row | Binder | Kd (p204 HINab [1]) [µM] | binding result (p204 HINab [2]) | Kd (p204 HINb) [µM] | Kd (p204 HINa) [µM]
1 | B1 | 156 ± 37.5 |  |  | 
2 | B2 |  | binds |  | 
3 | B3 | 13.5 ± 2.39 |  | 157 ± 37.2 | 193 ± 77

Source: paper PMC7969034
